Experiments:
[1] = biological target: T1, UAF (Rrn5-Rrn9-Rrn10-Uaf30-H3-H4) (Saccharomyces cerevisiae? (budding …, UniProt Q02983;P53437;P38204;Q08747;P61830;P02309 1-363;1-365;1-145;1-228;1-136;1-103)); assay: filter binding; two repeats; text assigns tight Kd to -110/-40, fig. S7 legend order of the DNAs appears swapped; 30 mM Hepes-NaOH pH 7.5, 30 mM sodium citrate pH 6.0, 250 mM KCl, 2 mM DTT; filter binding 1 h at 4 C; footprinting on ice, then 2.5 mM MgCl2, 0.5 mM CaCl2, DNa
[2] = biological target: T1, UAF (Rrn5-Rrn9-Rrn10-Uaf30-H3-H4); assay: filter binding; fitted Kd only in figure; legend order of the DNAs appears swapped; 30 mM Hepes-NaOH pH 7.5, 30 mM sodium citrate pH 6.0, 250 mM KCl, 2 mM DTT; filter binding 1 h at 4 C; footprinting on ice, then 2.5 mM MgCl2, 0.5 mM CaCl2, DNa

B1: DNA-110/-40 (downstream) (dsDNA)
DNA 1: AGAGCGACAGAGAGGGCAAAAGAAAATAAAAGTAAGATTTTAGTTTGTAATGGGAGGGGGGGTTTAGTCAT
DNA 2: ATGACTAAACCCCCCCTCCCATTACAAACTAAAATCTTACTTTTATTTTCTTTTGCCCTCTCTGTCGCTCT
In the case of B1, the Kd [1] is reported as 20.4 nM.

B2: DNA-180/-110 (upstream) (dsDNA)
DNA 1: ATATACGCTAAGATTTTTGGAGAATAGCTTAAATTGAAGTTTTTCTCGGCGAGAAATACGTAGTTAAGGCA
DNA 2: TGCCTTAACTACGTATTTCTCGCCGAGAAAAACTTCAATTTAAGCTATTCTCCAAAAATCTTAGCGTATAT
B2 was tested, and the “fold decrease in affinity” value [2] was ~5 fold lower affinity than DNA-110/-40.
